According to patent US20250026849A1 (ARCELLX, published 2025):

T1: CD123 (Homo sapiens (Human), UniProt P26951 19-305, limits assumed)
T1 construct: The CD123 construct used in the ELISA is not described; also called CD123-Signal
T1 sequence: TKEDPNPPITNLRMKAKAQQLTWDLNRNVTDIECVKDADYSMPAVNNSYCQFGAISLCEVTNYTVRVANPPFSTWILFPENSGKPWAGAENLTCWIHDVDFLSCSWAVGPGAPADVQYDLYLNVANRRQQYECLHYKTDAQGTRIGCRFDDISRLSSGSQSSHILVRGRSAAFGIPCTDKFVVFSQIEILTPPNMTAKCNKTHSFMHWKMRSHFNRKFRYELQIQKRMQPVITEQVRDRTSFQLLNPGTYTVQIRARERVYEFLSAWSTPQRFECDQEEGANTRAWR


Biological target: T1, CD123
Assay: ELISA
Design: unit not given here

ELISA_avg	Binder
3.2	D domain of SEQ ID NO: 351 (designed binder) MGSWVEFWFRLEAIDSRLWALGGSEAELAAFEKEIAAFESELQAYKGKGNPEVEWLREEAAAIREDLQAYRHN
4.6	D domain of SEQ ID NO: 362 (designed binder) MGSWVEFHDRLEAIEDRLYALGGSEAELAAFEKEIAAFESELQAYKGKGNPEVEWLREDAAYIRSILQAYRHN
3.7	D domain of SEQ ID NO: 361 (designed binder) MGSWVEFHERLEAIEDRLMALGGSEAELAAFEKEIAAFESELQAYKGKGNPEVEYLREDAAFIRQLLQAYRHN
10.3	D domain of SEQ ID NO: 412 (designed binder) MGSWFEFWDRLEAIWERLDALGGSEAELAAFEKEIAAFESELQAYKGKGNPEVEELRREAAIIREDLQAYRHN
3.2	D domain of SEQ ID NO: 430 (designed binder) MGSWMEFEERLWAIDSRLWALGGSEAELAAFEKEIAAFESELQAYKGKGNPEVEWLRSEAAWIRMELQAYRHN
9.7	D domain of SEQ ID NO: 403 (designed binder) MGSWYEFWDRLDALEDRLWALGGSEAELAAFEKEIAAFESELQAYKGKGNPEVEYLRDSAAFIREELQAYRHN
3.2	D domain of SEQ ID NO: 416 (designed binder) MGSWFEFQDRLWAIDNRLWALGGSEAELAAFEKEIAAFESELQAYKGKGNPEVEELRDHAAMIRWELQAYRHN
3.2	D domain of SEQ ID NO: 355 (designed binder) MGSWYEFETRLEAIYDRLWALGGSEAELAAFEKEIAAFESELQAYKGKGNPEVELLRVEAAEIREDLQAYRHN
4.2	D domain of SEQ ID NO: 402 (designed binder) MGSWFEFDDRLWAIENRLWALGGSEAELAAFEKEIAAFESELQAYKGKGNPEVEVLRDNAAWIREILQAYRHN
4.9	D domain of SEQ ID NO: 415 (designed binder) MGSWYEFEDRLWAIDNRLWALGGSEAELAAFEKEIAAFESELQAYKGKGNPEVEELRVHAADIRDDLQAYRHN
5.8	D domain of SEQ ID NO: 404 (designed binder) MGSWMEFVDRLDAIESRLWALGGSEAELAAFEKEIAAFESELQAYKGKGNPEVEWLRIEAAFIREELQAYRHN
5.1	D domain of SEQ ID NO: 364 (designed binder) MGSWVEFDQRLEAIYDRLYALGGSEAELAAFEKEIAAFESELQAYKGKGNPEVEWLREDAAQIRKWLQAYRHN
8.4	D domain of SEQ ID NO: 401 (designed binder) MGSWYEFYERLDAIEERLWALGGSEAELAAFEKEIAAFESELQAYKGKGNPEVEVLRDWAAWIREDLQAYRHN
3.3	D domain of SEQ ID NO: 365 (designed binder) MGSWVEFHDRLEAIEDRLLALGGSEAELAAFEKEIAAFESELQAYKGKGNPEVEDLREYAAGIRWFLQAYRHN
9.4	D domain of SEQ ID NO: 400 (designed binder) MGSWVEFYSRLDAIEDRLWALGGSEAELAAFEKEIAAFESELQAYKGKGNPEVEWLRIAAASIREDLQAYRHN
6.2	D domain of SEQ ID NO: 350 (designed binder) MGSWAEFEDRLWAIEDRLWALGGSEAELAAFEKEIAAFESELQAYKGKGNPEVEYLREEAAAIRFELQAYRHN

ELISA_avg	Binder
4.7	D domain of SEQ ID NO: 353 (designed binder) MGSWSEFWQRLEAIEDRLWALGGSEAELAAFEKEIAAFESELQAYKGKGNPEVEWLRENAAMIRDELQAYRHN
7.7	D domain of SEQ ID NO: 352 (designed binder) MGSWVEFWQRLEAIESRLWALGGSEAELAAFEKEIAAFESELQAYKGKGNPEVEFLREEAAEIRWELQAYRHN
3.3	D domain of SEQ ID NO: 396 (designed binder) MGSWVEFDMRLSAIWERLIALGGSEAELAAFEKEIAAFESELQAYKGKGNPEVEWLREDAAEIREFLQAYRHN
3.3	D domain of SEQ ID NO: 354 (designed binder) MGSWSEFITRLEAIDDRLWALGGSEAELAAFEKEIAAFESELQAYKGKGNPEVEILREEAAEIRQHLQAYRHN
3.5	D domain of SEQ ID NO: 414 (designed binder) MGSWFEFHDRLWAIDERLWALGGSEAELAAFEKEIAAFESELQAYKGKGNPEVEILREEAADIRLDLQAYRHN
5.8	D domain of SEQ ID NO: 349 (designed binder) MGSWTEFHDRLEAIDDRLWALGGSEAELAAFEKEIAAFESELQAYKGKGNPEVEYLREEAAQIRWELQAYRHN
5.5	D domain of SEQ ID NO: 413 (designed binder) MGSWFEFEDRLEAIYQRLDALGGSEAELAAFEKEIAAFESELQAYKGKGNPEVEWLRDEAAWIRSDLQAYRHN
7.5	D domain of SEQ ID NO: 363 (designed binder) MGSWIEFYDRLEAIYDRLDALGGSEAELAAFEKEIAAFESELQAYKGKGNPEVEWLREDAAFIRSWLQAYRHN
10.5	D domain of SEQ ID NO: 397 (designed binder) MGSWVEFDQRLDAIYERLYALGGSEAELAAFEKEIAAFESELQAYKGKGNPEVEWLRDEAAEIREHLQAYRHN
6	D domain of SEQ ID NO: 405 (designed binder) MGSWDEFVDRLWAIEERLWALGGSEAELAAFEKEIAAFESELQAYKGKGNPEVEELRIQAAIIREALQAYRHN
9.1	D domain of SEQ ID NO: 442 (designed binder) MGSWVEFHMRLDAIYERLDALGGSEAELAAFEKEIAAFESELQAYKGKGNPEVEWLRTAAANIRVELQAYRHN
10.2	D domain of SEQ ID NO: 359 (designed binder) MGSWTEFSIRLEAIYDRLVALGGSEAELAAFEKEIAAFESELQAYKGKGNPEVEVLRTYAAFIRHELQAYRHN
11.9	D domain of SEQ ID NO: 358 (designed binder) MGSWTEFSIRLEAIYDRLVALGGSEAELAAFEKEIAAFESELQAYKGKGNPEVEVLRTYAANIRHELQAYRHN
6.4	D domain of SEQ ID NO: 357 (designed binder) MGSWYEFVIRLEAIEDRLWALGGSEAELAAFEKEIAAFESELQAYKGKGNPEVEVLRWYAADIRHELQAYRHN
13.7	D domain of SEQ ID NO: 435 (designed binder) MGSWSEFNMRLDAIYERLTALGGSEAELAAFEKEIAAFESELQAYKGKGNPEVEWLRHSAARIRLELQAYRHN
7.5	D domain of SEQ ID NO: 356 (designed binder) MGSWTEFYYRLEAIEDRLWALGGSEAELAAFEKEIAAFESELQAYKGKGNPEVEFLRVEAANIRDMLQAYRHN
